For the test, the target named is IL-12 receptor on mouse lineage negative bone marrow cells (mouse) (UniProt Q60837). As to the kind of experiment: cell-based or functional assay.

“And” between values parts separate entries of the source, which are not always exact repeats. Equal entries are not always repeated.

Sequence of IL-12 receptor on mouse lineage negative bone marrow cells (mouse) (Q60837 20-738, chain 1 of 2): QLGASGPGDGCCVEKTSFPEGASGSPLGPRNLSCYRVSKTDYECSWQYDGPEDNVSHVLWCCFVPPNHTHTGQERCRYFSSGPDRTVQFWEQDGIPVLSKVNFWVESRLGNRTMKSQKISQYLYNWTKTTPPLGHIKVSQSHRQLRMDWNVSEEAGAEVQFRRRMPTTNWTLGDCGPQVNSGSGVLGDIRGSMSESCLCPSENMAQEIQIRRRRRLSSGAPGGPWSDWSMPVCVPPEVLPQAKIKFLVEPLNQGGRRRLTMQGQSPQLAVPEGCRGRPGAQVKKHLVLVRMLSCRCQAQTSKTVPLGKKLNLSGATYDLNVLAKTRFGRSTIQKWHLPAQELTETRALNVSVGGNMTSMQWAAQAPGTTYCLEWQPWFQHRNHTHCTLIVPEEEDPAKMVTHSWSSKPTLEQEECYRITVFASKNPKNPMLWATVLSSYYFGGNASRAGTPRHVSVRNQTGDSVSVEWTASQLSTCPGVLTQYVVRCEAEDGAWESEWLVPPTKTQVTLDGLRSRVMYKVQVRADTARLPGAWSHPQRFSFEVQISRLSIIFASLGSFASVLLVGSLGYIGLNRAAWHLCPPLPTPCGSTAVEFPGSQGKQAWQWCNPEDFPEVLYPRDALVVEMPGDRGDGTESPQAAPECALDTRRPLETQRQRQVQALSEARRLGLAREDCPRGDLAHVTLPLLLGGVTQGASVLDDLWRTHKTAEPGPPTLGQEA
Sequence of IL-12 receptor on mouse lineage negative bone marrow cells (mouse) (P97378 24-874, chain 2 of 2, further chain): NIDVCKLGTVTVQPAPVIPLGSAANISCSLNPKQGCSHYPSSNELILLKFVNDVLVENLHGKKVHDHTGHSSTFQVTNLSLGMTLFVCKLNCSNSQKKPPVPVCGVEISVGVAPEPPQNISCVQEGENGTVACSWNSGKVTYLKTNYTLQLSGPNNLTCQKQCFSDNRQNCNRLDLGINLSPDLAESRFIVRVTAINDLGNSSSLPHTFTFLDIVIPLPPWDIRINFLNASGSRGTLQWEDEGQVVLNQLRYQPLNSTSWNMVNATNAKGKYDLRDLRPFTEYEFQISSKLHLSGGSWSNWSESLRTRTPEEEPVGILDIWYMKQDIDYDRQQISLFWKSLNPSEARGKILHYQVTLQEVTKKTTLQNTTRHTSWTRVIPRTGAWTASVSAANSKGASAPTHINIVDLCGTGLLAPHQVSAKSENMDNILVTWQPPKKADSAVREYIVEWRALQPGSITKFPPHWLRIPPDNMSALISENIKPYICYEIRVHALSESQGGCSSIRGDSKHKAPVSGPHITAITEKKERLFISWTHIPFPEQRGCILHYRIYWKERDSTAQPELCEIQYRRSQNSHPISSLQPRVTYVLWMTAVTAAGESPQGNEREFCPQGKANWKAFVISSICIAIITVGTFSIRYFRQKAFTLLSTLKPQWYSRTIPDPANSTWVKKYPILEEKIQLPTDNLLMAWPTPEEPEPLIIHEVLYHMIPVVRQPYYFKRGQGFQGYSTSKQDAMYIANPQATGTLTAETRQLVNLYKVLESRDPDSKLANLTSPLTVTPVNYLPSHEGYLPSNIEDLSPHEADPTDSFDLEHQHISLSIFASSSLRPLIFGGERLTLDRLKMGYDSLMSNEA

In the case of “exogenous IL-12 (IL-12 ligand) injected into C57BL/6 mice in Example 7”, the Fold-Increase in Lin- IL-12R+ cells (FACS of bone marrow after in vivo IL-12, 100 ng/mouse) was 5.4 fold and 3.5 fold.
